In PMC2195846:

Biological target: Full-length Daxx linked to the Gal4 DNA binding domain (pAS2-1-Daxx) (mouse) (UniProt O35613)
Test: two-hybrid

Sequence of UniProt O35613 (O35613 whole entry, the tested form may be a part): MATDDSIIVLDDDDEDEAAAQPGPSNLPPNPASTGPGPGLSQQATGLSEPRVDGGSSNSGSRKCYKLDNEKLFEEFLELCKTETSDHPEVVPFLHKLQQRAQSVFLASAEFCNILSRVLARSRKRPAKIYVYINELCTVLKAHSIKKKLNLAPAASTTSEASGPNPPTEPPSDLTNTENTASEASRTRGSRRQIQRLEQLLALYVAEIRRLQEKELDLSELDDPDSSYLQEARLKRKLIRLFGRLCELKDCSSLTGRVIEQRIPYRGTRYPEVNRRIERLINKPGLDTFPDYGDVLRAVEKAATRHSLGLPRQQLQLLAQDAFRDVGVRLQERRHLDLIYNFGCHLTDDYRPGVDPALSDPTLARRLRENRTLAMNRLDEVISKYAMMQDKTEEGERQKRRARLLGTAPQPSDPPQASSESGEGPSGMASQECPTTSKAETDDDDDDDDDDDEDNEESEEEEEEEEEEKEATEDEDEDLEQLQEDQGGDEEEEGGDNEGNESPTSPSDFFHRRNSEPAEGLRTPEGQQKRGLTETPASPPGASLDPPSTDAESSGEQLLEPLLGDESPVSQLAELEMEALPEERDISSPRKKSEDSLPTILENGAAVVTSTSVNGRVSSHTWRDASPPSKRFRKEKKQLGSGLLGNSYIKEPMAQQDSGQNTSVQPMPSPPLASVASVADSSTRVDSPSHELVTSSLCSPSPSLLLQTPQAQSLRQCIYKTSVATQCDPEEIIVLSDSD

β-galactosidase expression, fold over the single-transformed colonies: 50 fold
Substance: Full-length PML linked to the Gal4 activation domain (pACT-2-PML) (from UniProt P29590 1-882) (natural protein)
